What is called Kd is the equilibrium constant for the complex coming apart. Lower therefore signals tighter binding.

Where two headings read alike, the source gives them in different places. Where no end group is shown, it is not given here. [ ]: non-standard residue; d: D form. pY = N[C@@H](Cc1ccc(OP(=O)(O)O)cc1)C(=O)O; pT = C[C@@H](OP(=O)(O)O)[C@H](N)C(=O)O; pS = N[C@@H](COP(=O)(O)O)C(=O)O

What all share (assay): FP
Experiment [1] deals with T1, PIK3R1 (p85) C-terminal SH2 domain (614-724) (human, UniProt P27986 614-724).
T1 sequence (P27986 614-724): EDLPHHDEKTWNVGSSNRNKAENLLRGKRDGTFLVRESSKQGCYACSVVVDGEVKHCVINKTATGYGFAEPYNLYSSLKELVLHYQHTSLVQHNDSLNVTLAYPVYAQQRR
Experiment [2] deals with T2, PIK3R1 (p85) N-terminal SH2 domain (321-433) (human, UniProt P27986 321-433).
T2 sequence (P27986 321-433): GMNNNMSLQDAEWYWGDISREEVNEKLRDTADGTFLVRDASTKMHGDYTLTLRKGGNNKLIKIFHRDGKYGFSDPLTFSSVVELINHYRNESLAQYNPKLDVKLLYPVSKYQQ
The target in experiment [3] is T1, PIK3R1 (p85) C-terminal SH2 domain …. This is another data set of the same source.
The target in experiment [4] is T2, PIK3R1 (p85) N-terminal SH2 domain …. This is another data set of the same source.

As to RSRLLHSD[pY]MNMTPRR [p0CD28, CD28 peptide with phosphotyrosine only (pY191)], the Kd in experiment [1] stood at 11 nM; in experiment [2] it was 104 nM.
Turning to GRKGSGD[pY]MPM[pS]PKS [ppIRS1, IRS1 peptide dually phosphorylated (pY632 + pS636)], the figures for the Kd in experiment [3] and in experiment [4] were 5.1 nM and 306 nM, respectively.

B1: CF-ppIRS1, carboxyfluorescein-labelled pY632 + pS636 IRS1 peptide (peptide)
chain: GRKGSGDYMPMSPKS
modifications: phosphotyrosine at Y632; phosphoserine at S636; C-terminal lysine-ε-carboxyfluorescein label
B1: the Kd in experiment [1] was 5.7 nM; in experiment [3] it was 10.6 nM; in experiment [4] it was 412 nM; in experiment [2] it was 383 nM.
In the case of GRKGSGD[pY]MPMSPKS [p0IRS1, IRS1 peptide with phosphotyrosine only (pY632)], the Kd in experiment [3] is 8.1 nM; in experiment [4] it was 184 nM.
As for RSRLLHSD[pY]MNM[pT]PRR [ppCD28, CD28 peptide dually phosphorylated (pY191 + pT195)], the Kd in experiment [1] is 22.9 nM; in experiment [2] it was 285 nM.

The values above are taken from PMC9481563 (2022).
